T1: rat beta CGRP (SEQ ID NO: 83) (rat, not fully specified)
T1 construct: also called rat βCGRP; rat β-CGRP
T1 peptide: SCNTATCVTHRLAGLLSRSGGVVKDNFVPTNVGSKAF

T2: rat alpha CGRP (SEQ ID NO: 82) (rat)
T2 construct: also called rat αCGRP; rat α-CGRP
T2 peptide: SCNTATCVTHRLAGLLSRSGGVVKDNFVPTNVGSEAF

T3: human alpha CGRP (SEQ ID NO: 80) (human, not fully specified)
T3 construct: also called human αCGRP; hαCGRP
T3 peptide: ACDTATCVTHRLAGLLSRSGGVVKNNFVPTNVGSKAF

T4: human beta CGRP (SEQ ID NO: 81) (human, not fully specified)
T4 construct: also called human βCGRP; hβCGRP
T4 peptide: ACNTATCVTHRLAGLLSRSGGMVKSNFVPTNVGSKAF


Legend:
[1] = biological target: T1, rat beta CGRP (SEQ ID NO: 83); test: SPR, 37 C, mutein captured, CGRP analyte
Method: (§1) The Biotin CAPture Kit (GE Healthcare) was used to immobilize biotinylated lipocalin muteins to a chip surface. Muteins were biotinylated using standard NHS chemistry. Undiluted Biotin CAPture Reagent (streptavidin conjugated with ss-DNA oligo) was captured on a Sensor Chip CAP with the pre-immobilized complementary ss-DNA oligo. Thereafter, biotinylated muteins at 1 μg/mL were applied for 300 s at a flow rate of 5 μL/min.
(§2) CGRP species were applied in three concentrations of 30 nM, 3 nM and 0.3 nM at a flow rate of 30 μL/min or in a single concentration of 25 nM per cycle as shown in FIG. 2. The dilutions were injected with association times of 180 s and dissociation times of 5400 sec to obtain ka and kd information. Regeneration of the chip surface was achieved by injecting 6 M Guanidinium-HCl+0.25 M NaOH (120 s) with a flow rate of 10 μL/min. Injection of regeneration solutions was followed by an extra wash step with HBS-EP+(1×; BR-1006-69; GE Healthcare) running buffer and a stabilization period of 120 s.
(§3) The data were double-referenced by subtraction of the corresponding signals measured for the control channel (loaded with Biotin CAPture reagent only) and by subtraction of buffer injections from the binding responses. Association rate constant ka and dissociation rate constant kd for the binding reaction were determined using Biacore T200 Evaluation Software V2.0 for data processing and kinetic fitting. The data were globally fit with 1:1 binding model.

[2] = biological target: T2, rat alpha CGRP (SEQ ID NO: 82); test: SPR, 37 C, mutein captured, CGRP analyte
Method: as §1, §2, §3

[3] = biological target: T3, human alpha CGRP (SEQ ID NO: 80); test: SPR, 37 C, mutein captured, CGRP analyte
Method: as §1, §2, §3

[4] = biological target: T4, human beta CGRP (SEQ ID NO: 81); test: SPR, 37 C, mutein captured, CGRP analyte
Method: as §1, §2, §3

[5] = biological target: T1, rat beta CGRP (SEQ ID NO: 83); test: cell-based or functional assay
[6] = biological target: T2, rat alpha CGRP (SEQ ID NO: 82); test: cell-based or functional assay
[7] = biological target: T3, human alpha CGRP (SEQ ID NO: 80); test: cell-based or functional assay
[8] = biological target: T4, human beta CGRP (SEQ ID NO: 81); test: cell-based or functional assay
[9] = biological target: T3, human alpha CGRP (SEQ ID NO: 80); test: SPR Biacore 37 °C, mutein captured as ligand, sample PL1827 (ha CGRP) injected, 1:1 fit; repeat run 130903_NAN-DS-058 (not the run of Table 2) [contd]
Method: as §1, §2, §3

[10] = biological target: T3, human alpha CGRP (SEQ ID NO: 80); test: cell-based or functional assay
[11] = biological target: T4, human beta CGRP (SEQ ID NO: 81); test: cell-based or functional assay
[12] = biological target: T3, human alpha CGRP (SEQ ID NO: 80); test: SPR as in Example 5
Method: as §1, §2

[13] = biological target: T4, human beta CGRP (SEQ ID NO: 81); test: SPR as in Example 5
Method: as §1, §2

[14] = biological target: T3, human alpha CGRP (SEQ ID NO: 80); test: SPR, Biacore T200, 37 C; biotinylated mutein captured, human alpha CGRP analyte
Method: The Biotin CAPture Kit (GE Healthcare) was used to immobilized biotinylated lipocalin muteins to a chip surface. Muteins were biotinylated using standard NHS chemistry. Fifty-fold diluted Biotin CAPture Reagent (streptavidin conjugated with ss-DNA oligo) was captured on a Sensor Chip CAP with the pre-immobilized complementary ss-DNA oligo. Thereafter, biotinylated muteins at 200 nM were applied for 60 s at a flow rate of 10 μL/min.
The dilutions were injected with association times of 600 s and dissociation times of 1800 s. Regeneration of the chip surface was achieved by injecting 6 M Guanidinium-HCl+0.25 M NaOH (120 s) with a flow rate of 10 μL/min, followed by injecting 30% acetonitrile+0.25 M NaOH (120 s) with a flow rate of 10 μL/min. Injection of regeneration solutions was followed by an extra wash step with HBS-EP+ running buffer and a stabilization period of 60 s.
The data were double-referenced by subtraction of the corresponding signals measured for the control channel (loaded with Biotin CAPture reagent only) and by subtraction of buffer injections from the binding responses. Association rate constant ka and dissociation rate constant kd for the binding reaction were determined using Biacore T200 Evaluation Software version 1.0 for data processing and kinetic fitting. The data were globally fit with 1:1 binding model.

[15] = biological target: T3, human alpha CGRP (SEQ ID NO: 80); test: cell-based or functional assay

Binder	Kd [1] [nM]	koff [1] [s⁻¹]	kon [1] [M⁻¹ s⁻¹]	Kd [2] [nM]	koff [2] [s⁻¹]	kon [2] [M⁻¹ s⁻¹]	Kd [3] [nM]	koff [3] [s⁻¹]	kon [3] [M⁻¹ s⁻¹]	Kd [4] [nM]	koff [4] [s⁻¹]	kon [4] [M⁻¹ s⁻¹]	IC50, CGRP-induced cAMP production, L6 cells [5] [nM]	IC50, CGRP-induced cAMP production, L6 cells [6] [nM]	IC50, CGRP-induced cAMP production, SK-N-MC cells [7] [nM]	IC50, CGRP-induced cAMP production, SK-N-MC cells [8] [nM]	Kd [14] [nM]	cAMP assay IC50 [15] [nM]	other results
lipocalin mutein SEQ ID NO: 14 (designed binder, biotinylated by NHS chemistry for capture in SPR) QDSTSDLIPAPPLSKVPLQQNFQDNQFHGKWYVVGRAGNDALREDKDPEKMEATIYELKEDKSYNVTDVGFVQKKCMYVIHTFVPGSQPGEFTLGNIKSYPGVTSALVRVVSTNYNQHAMVFFKLVKQNRELFEITLYGRTKELTSELKENFIRFSKSLGLPENHIVFPVPIDQCIDGSAWSHPQFEK	0.107	0.000181	1.69e+06	0.29	0.000339	1.19e+06	0.055	0.000141	2.56e+06	0.031	0.000141	4.56e+06	0.09	0.12	0.15	1.5			koff [9]: 0.000183 s⁻¹; kon [9]: 3.44e+06 M⁻¹ s⁻¹
lipocalin mutein SEQ ID NO: 17 (designed binder, biotinylated by NHS chemistry for capture in SPR) QDSTSDLIPAPPLSKVPLQQNFQDNQFHGKWYVVGRAGNDVLREDKDPEKMEATIYELKEDKSYNVTDVGFVQKRCMYVTHTFVPGSQPGEFTLGNIESYPGVTSALVRVVSTDYNQHAMVFVKLVKQNRELFEITLYGRTKELTSELKENFIRFSKSLGLPENHIVFPVPIDQCIDGSAWSHPQFEK	0.012	5.99e-05	5.18e+06	0.031	8.44e-05	2.75e+06	0.011	3.66e-05	3.34e+06	0.001	1.44e-05	1.36e+07	0.11	0.06	0.11	0.23			cAMP assay IC50, SK-N-MC cells [10]: 0.09 nM; cAMP assay IC50, SK-N-MC cells [11]: 0.13 nM; Kd [12]: 0.02 nM; Kd [13]: 0.003 nM
lipocalin mutein SEQ ID NO: 20 (designed binder, biotinylated by NHS chemistry for capture in SPR) QDSTSDLIPAPPLSKVPLQQNFQDNQFHGKWYVVGRAGNDTLRKDKDPEKMEATIYELKEDKSYNVTDVGFVQKKCMYVIHTFVPGSQPGEFTLGNIKSYPGVTSALVRVVSTNYNQHAMVFVKLVKQNRELFEITLYGRTKELTSELKENFIRFSKSLGLPENHIVFPVPIDQCIDGSAWSHPQFEK	0.013	1.84e-05	1.38e+06	0.028	2.41e-05	867000	0.012	1.75e-05	1.45e+06	0.004	7.89e-06	2.18e+06	0.11	0.08	0.14	0.17			
tag-free lipocalin mutein SEQ ID NO: 87 (designed binder, biotinylated by NHS chemistry for capture in SPR; also called tag-free mutein 87) GQDSTSDLIPAPPLSKVPLQQNFQDNQFQGKWYVVGWAGNTLLREDKDPIKMQAMIYELKEDKSYNVTWVYFADKKINYHIETFVPGSQPGEFTLGTIKSYPGETPILVRVVSTNYNQHAMVFFKGVNQNREIFEIVLYGRTKELTNELKENFIRFSKSLGLPENHIVFPVPIDQEIDG																	0.081	0.66	
tag-free lipocalin mutein SEQ ID NO: 88 (designed binder, biotinylated by NHS chemistry for capture in SPR; also called tag-free mutein 88) GQDSTSDLIPAPPLSKVPLQQNFQDNQFHGKWYVVGRAGNDVLREDKDPEKMEATIYELKEDKSYNVTDVGFVQKRCMYVTHTFVPGSQPGEFTLGNIESYPGVTSALVRVVSTDYNQHAMVFVKLVKQNRELFEITLYGRTKELTSELKENFIRFSKSLGLPENHIVFPVPIDQCIDG																	0.008	0.17	
tag-free lipocalin mutein SEQ ID NO: 89 (designed binder, biotinylated by NHS chemistry for capture in SPR; also called tag-free mutein 89) GQDSTSDLIPAPPLSKVPLQQNFQDNQFHGKWYVVGRAGNDVLREDKDPEKMEATIYELKEDKSYQVTDVGFVQKRCMYVTHTFVPGSQPGEFTLGNIESYPGVTSALVRVVSTDYNQHAMVFVKLVKQNRELFEITLYGRTKELTSELKENFIRFSKSLGLPENHIVFPVPIDQCIDD																	0.006	0.17	
tag-free lipocalin mutein SEQ ID NO: 92 (designed binder, biotinylated by NHS chemistry for capture in SPR; also called tag-free mutein 92) GQDSTSDLKPAPPLSKVPLQQNFQDNQFHGKWYVVGRAGNDVLREDKDPEKMEATIYELKEDKSYQVTDVGFVQKRCMYVTHTFVPGSQPGEFTLGNIESYPGVTSALVRVVSTDYNQHAMVFVKLVKQNRELFEITLYGRTKELTSELKENFIRFSKSLGLPENHIVFPVPIDQCIDD																	0.01	0.18	
tag-free lipocalin mutein SEQ ID NO: 90 (designed binder, biotinylated by NHS chemistry for capture in SPR; also called tag-free mutein 90) GQDSTSDLKPAPPLSKVPLQQNFQDNQFHGKWYVVGRAGNDVLREDKDPEKMEATIYELKEDKSYNVTDVGFVQKRCMYVTHTFVPGSQPGEFTLGNIESYPGVTSALVRVVSTDYNQHAMVFVKLVKQNRELFEITLYGRTKELTSELKENFIRFSKSLGLPENHIVFPVPIDQCIDG																	0.012	0.16	
tag-free lipocalin mutein SEQ ID NO: 91 (designed binder, biotinylated by NHS chemistry for capture in SPR; also called tag-free mutein 91) GQDSTSDLIHAPPLSKVPLQQNFQDNQFHGKWYVVGRAGNDVLREDKDPEKMEATIYELKEDKSYNVTDVGFVQKRCMYVTHTFVPGSQPGEFTLGNIESYPGVTSALVRVVSTDYNQHAMVFVKLVKQNRELFEITLYGRTKELTSELKENFIRFSKSLGLPENHIVFPVPIDQCIDG																	0.01	0.16	
tag-free lipocalin mutein SEQ ID NO: 93 (designed binder, biotinylated by NHS chemistry for capture in SPR; also called tag-free mutein 93) GQDSTSDLIHAPPLSKVPLQQNFQDNQFHGKWYVVGRAGNDVLREDKDPEKMEATIYELKEDKSYQVTDVGFVQKRCMYVTHTFVPGSQPGEFTLGNIESYPGVTSALVRVVSTDYNQHAMVFVKLVKQNRELFEITLYGRTKELTSELKENFIRFSKSLGLPENHIVFPVPIDQCIDD																	0.011	0.13	

From US20190338002A1 (Pieris, published 2019)
